From patent publication US20140234975

Legend:
Experiment in all cases: cell_activity
[1] = tested on: T1, SC_CAPNS1 single-chain meganuclease (engineered); conditions: 293H endogenous locus; 18.25 with TREX2, 25.4 with scTREX2
T1 sequence: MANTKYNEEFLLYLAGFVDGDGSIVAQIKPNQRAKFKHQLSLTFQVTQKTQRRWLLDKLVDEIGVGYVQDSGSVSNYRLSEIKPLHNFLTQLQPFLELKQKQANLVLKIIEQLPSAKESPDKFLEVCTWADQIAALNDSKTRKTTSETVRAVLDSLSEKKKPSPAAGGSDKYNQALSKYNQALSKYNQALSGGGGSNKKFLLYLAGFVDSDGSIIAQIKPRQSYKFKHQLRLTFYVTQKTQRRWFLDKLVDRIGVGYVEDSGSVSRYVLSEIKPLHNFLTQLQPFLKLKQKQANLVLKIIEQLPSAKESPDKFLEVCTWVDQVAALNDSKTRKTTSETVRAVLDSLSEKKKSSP

[2] = tested on: T2, scTrex2-SC_CAPNS1 (engineered (human TREX2 fusion)); conditions: 293H endogenous locus
T2 sequence: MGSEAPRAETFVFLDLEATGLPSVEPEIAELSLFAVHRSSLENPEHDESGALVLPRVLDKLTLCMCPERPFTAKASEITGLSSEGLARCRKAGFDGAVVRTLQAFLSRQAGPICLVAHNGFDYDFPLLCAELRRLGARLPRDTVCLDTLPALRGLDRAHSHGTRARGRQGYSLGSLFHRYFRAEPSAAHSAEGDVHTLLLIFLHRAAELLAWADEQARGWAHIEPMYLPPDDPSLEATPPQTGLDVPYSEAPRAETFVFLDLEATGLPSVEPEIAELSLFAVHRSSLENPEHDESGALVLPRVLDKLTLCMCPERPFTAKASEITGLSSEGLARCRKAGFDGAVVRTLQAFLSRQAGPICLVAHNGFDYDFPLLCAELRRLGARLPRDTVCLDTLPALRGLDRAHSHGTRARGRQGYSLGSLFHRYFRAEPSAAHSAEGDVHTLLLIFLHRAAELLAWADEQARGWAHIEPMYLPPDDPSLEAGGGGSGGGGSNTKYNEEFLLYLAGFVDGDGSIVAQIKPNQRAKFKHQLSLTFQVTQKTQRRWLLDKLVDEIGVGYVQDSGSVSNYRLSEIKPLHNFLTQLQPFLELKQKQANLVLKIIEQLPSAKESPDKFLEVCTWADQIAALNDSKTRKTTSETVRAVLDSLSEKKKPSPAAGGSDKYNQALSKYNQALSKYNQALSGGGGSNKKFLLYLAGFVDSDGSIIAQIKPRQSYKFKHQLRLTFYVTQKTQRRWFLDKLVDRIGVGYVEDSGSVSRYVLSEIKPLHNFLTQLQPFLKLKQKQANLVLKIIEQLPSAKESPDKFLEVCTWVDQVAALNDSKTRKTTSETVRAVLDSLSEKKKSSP

[3] = tested on: T3, SC_RAG single-chain meganuclease (engineered); conditions: 293H endogenous locus; 4.69 with TREX2, 5.41 with scTREX2
T3 sequence: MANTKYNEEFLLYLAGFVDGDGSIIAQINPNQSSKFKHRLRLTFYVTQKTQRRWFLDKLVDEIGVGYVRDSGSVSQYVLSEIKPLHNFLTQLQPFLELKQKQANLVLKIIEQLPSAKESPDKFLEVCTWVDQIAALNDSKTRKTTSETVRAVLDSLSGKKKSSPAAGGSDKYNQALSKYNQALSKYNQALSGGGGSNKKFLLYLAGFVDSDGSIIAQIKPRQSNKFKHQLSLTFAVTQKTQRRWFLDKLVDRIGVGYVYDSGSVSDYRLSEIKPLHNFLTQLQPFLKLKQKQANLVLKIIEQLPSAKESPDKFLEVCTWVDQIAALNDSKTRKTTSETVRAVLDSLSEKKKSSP

[4] = tested on: T4, scTrex2-SC_RAG (engineered (human TREX2 fusion)); conditions: 293H endogenous locus
T4 sequence: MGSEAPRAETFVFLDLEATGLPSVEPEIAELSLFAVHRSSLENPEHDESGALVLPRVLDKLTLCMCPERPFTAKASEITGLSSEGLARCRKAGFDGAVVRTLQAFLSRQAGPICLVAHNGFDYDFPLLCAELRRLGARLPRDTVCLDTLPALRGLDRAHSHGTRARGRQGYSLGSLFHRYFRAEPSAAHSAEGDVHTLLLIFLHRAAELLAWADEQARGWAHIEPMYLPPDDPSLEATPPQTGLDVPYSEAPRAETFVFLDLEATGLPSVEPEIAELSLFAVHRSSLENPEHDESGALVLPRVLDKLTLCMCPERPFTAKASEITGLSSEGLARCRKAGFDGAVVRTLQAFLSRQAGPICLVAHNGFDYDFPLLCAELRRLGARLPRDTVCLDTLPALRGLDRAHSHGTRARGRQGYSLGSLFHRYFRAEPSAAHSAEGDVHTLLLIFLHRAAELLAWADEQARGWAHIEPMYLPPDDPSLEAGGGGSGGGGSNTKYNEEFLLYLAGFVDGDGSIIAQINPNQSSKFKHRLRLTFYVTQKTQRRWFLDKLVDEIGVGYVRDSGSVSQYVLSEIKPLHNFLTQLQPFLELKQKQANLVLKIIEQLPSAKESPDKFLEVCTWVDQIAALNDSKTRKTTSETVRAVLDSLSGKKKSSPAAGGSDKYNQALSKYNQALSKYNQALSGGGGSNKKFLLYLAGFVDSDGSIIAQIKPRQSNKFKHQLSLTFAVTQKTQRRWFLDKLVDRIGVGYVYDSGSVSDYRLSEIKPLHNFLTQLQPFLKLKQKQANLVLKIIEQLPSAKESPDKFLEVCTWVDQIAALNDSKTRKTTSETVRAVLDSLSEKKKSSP

Row | Substance | activity (% targeted mutagenesis) [1] | activity (% targeted mutagenesis) [2] | activity (% targeted mutagenesis) [3] | activity (% targeted mutagenesis) [4]
1 | CAPNS1 locus meganuclease target | 15.2 | 35.8 | – | –
2 | RAG1 locus target | – | – | 1.4 | 8.42
